In publication PMC4551323 (Molecular Biology of the Cell, 2015):

Biological target: HA-tagged type II TGF-β receptor (TβRII) (human, UniProt P37173 23-567)
Experiment: patch/FRAP

Chain of HA-tagged type II TGF-β receptor (TβRII) (P37173 23-567): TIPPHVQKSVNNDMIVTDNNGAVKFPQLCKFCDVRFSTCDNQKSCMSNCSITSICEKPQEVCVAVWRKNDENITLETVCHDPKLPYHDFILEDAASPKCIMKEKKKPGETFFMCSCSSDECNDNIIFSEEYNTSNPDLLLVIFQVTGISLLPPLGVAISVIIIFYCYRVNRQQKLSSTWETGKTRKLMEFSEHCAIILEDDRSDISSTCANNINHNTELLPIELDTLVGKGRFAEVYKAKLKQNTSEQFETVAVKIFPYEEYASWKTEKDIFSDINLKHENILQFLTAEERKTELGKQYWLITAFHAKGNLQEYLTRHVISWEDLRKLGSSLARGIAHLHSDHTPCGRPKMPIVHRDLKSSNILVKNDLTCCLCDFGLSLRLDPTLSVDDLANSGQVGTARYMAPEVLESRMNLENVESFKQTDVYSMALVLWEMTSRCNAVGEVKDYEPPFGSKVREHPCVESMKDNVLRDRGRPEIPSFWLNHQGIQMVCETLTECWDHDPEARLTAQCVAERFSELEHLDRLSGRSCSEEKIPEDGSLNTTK

fold increase of complex formation with TGF-β1 against no ligand: ~2 fold
B1: myc-tagged ALK5 (type I TGF-β receptor, TβRI) (receptor)
chain: LQCFCHLCTKDNFTCVTDGLCFVSVTETTDKVIHNSMCIAEIDLIPRDRPFVCAPSSKTGSVTTTYCCNQDHCNKIELPTTVKSSPGLGPVELAAVIAGPVCFVCISLMLMVYICHNRTVIHHRVPNEEDPSLDRPFISEGTTLKDLIYDMTTSGSGSGLPLLVQRTIARTIVLQESIGKGRFGEVWRGKWRGEEVAVKIFSSREERSWFREAEIYQTVMLRHENILGFIAADNKDNGTWTQLWLVSDYHEHGSLFDYLNRYTVTVEGMIKLALSTASGLAHLHMEIVGTQGKPAIAHRDLKSKNILVKKNGTCCIADLGLAVRHDSATDTIDIAPNHRVGTKRYMAPEVLDDSINMKHFESFKRADIYAMGLVFWEIARRCSIGGIHEDYQLPYYDLVPSDPSVEEMRKVVCEQKLRPNIPNRWQSCEALRVMAKIMRECWYANGAARLTALRIKKTLSQLSQQEGIKM
